We go through three molecules from US20220340673A1 (HARBOUR BIOMED SUZHOU, published 2022).

By EC50 is commonly meant the concentration at which the effect is half-maximal. A word on the IC50: it is the point on the concentration scale where inhibition reaches its midpoint.

Assay [1] deals with T1, human BCMA on cells (HEK293T/huBCMA; NCI-H929) (human, UniProt Q02223 1-184).
T1 construct: whole, on cells; also called human BCMA molecules on NCI-H929 cell line
T1 sequence (looked up): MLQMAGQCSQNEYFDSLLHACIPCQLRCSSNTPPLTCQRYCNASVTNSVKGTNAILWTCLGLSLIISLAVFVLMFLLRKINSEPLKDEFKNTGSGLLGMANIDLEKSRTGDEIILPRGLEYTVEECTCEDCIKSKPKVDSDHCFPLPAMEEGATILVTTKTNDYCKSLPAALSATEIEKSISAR
The experiment in a line: FACS on NCI-H929 cell line [D]. The procedure:
(§1) This example was conducted to study the binding activity of anti human BCMA HCAb monoclonal antibodies to human and cynomolgus monkey BCMA in vitro. HEK293T cell strain (HEK293T/huBCMA, Beijing Kang yuan) overexpressing human BCMA, HEK293T cell strain (HEK293T/cynoBCMA, Beijing Kang yuan) overexpressing cynomolgus monkey BCMA and NCI- H929 cell line (ATCC® CRL-9068TM) highly expressing human BCMA were used for antibody binding assay at cellular level. Briefly, HEK293T/huBCMA cells and HEK293T/cynoBCMA cells were digested and resuspended with DMEM complete medium, and NCI-H929 cell suspensions were collected by resuspension with DMEM complete medium. The density of the three cells was adjusted to 1×10⁶ cells/mL, respectively. The cells were inoculated at 100 μL cells/well in 96 well V-bottom plates (Corning, Cat#: 3894), followed by the addition of test antibodies at 100 μL/well, which is gradient diluted at 3 folds of the concentration with 2 folds of the final concentration. Cells were incubated at 4° C. for 1 hours in the dark. Afterwards, the cells were washed twice with 100 μL/well of pre-cooled PBS, centrifuged at 500 g for 5 min at 4° C. and followed by discarding the supernatant. […] Finally, the cells were resuspended with 200 μL/well of pre-cooled PBS and the fluorescent luminescence signal values were read by using BD FACS CANTOII.

Assay [2] addresses T2, human BCMA protein with Fc Tag (ACRO, Cat#: BC7-H5254) (human, UniProt Q02223 1-54).
T2 construct: Bought reagent coated on the ELISA plate; not shown: Fc tag of the bought protein
T2 sequence (looked up): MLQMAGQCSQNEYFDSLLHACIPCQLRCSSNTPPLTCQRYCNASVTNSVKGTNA
The experiment in a line: ELISA, plate coated with human BCMA-Fc; antibody blocks the binding of biotinylated human BAFF [B]. As for the experimental part: This example was conducted to evaluate the blockage ability of anti-human BCMA HCAb monoclonal antibody to the binding of human BCMA (ACRO, BCA-H522y-100 μg) with ligand BAFF protein (ACRO, BAF-H5248-50 μg). The BAFF protein was biotinylated by using a biotinylation kit (ThermoFisher, A39257, EZ-Link Sulfo-NHS-LC-Biotin) according to the instructions. The plates (Corning, Cat#: 9018) were coated with 1 μg/mL of human BCMA protein with Fc Tag (ACRO, Cat#: BC7-H5254) overnight. The plates were washed for 3 times with PBST, added with 2% BSA and then sealed at room temperature for 1 hour. The plates were washed with PBST for 3 times, and added with test antibody gradient diluted at 3 folds concentration 100 μL/well, with an initial concentration of 50 nM. After being incubated for 1h, the supernatant was discarded and 0.5 μg/mL of biotinylated human BAFF protein (prepared according to conventional methods in the art) was added to the plates at 100 μL/well. The plates were incubated at room temperature for 1 h and discarded the supernatant. Streptavidin-coupled HRP (Bio-RAD, Cat#: 1610380) with 1: 4000 diluted was added at 100 μL/well. The plates were incubated for 1 h at room temperature and washed with PBST for 3 times. […] OD450 values were read by using Enspire (Perkin Elmer).
On the technique in general: An ELISA detects its analyte on a solid surface through an enzyme-linked reagent.

The target of assay [3] is T1, human BCMA on cells (HEK293T/huBCMA; …). The experiment in a line: FACS on HEK293T cell strain overexpressing human BCMA [D]. The procedure: as §1
The target in assay [4] is T3, cynomolgus monkey BCMA on cells (HEK293T/cynoBCMA) (cynomolgus monkey, UniProt A0A2K5UD97 1-183).
T3 construct: whole, on cells
The experiment in a line: FACS on HEK293T cell strain overexpressing cynomolgus monkey BCMA [D]. As for the experimental part:
as §1

The target in assay [5] is T1, human BCMA on cells (HEK293T/huBCMA; …). The experiment in a line: FACS on NCI-H929 cell line [B]. As for the experimental part:
To study the binding activity of the BCMA arm of the BCMA×CD3 bispecific antibody to human BCMA, NCI-H929 cell line with highly expressed BCMA was used for binding experiments with human BCMA at cellular level. Briefly, NCI-H929 cell suspensions were collected. The cell density was adjusted to 1×10⁶ cells/mL, and the cells were inoculated in 96 well V-bottom plates at 100 μL cells/well (Corning, Cat#: 3894), followed by the addition of test antibodies at 100 μL/well, which is gradient diluted at 3 folds of the concentration with 2 folds of the final concentration. Cells were incubated at 4° C. for 2 hours in the dark. Afterwards, cells were washed twice with 100 μL/well of pre-cooled PBS, centrifuged at 500 g for 5 min at 4° C., and followed by discarding the supernatant. 100 μL/well of fluorescent secondary antibody (Alexa Fluor 488-conjugated AffiniPure Goat Anti-Human IgG, Fcγ Fragment Specific, Jackson, Cat#:109-545-06, 1:500 dilution) was added and incubated at 4° C. for 1 hour in the dark. Cells were washed twice with 100 μL/well of pre-cooled PBS, centrifuged at 500 g, 4° C. for 5 min, and followed by discarding the supernatant. Finally, the cells were resuspended with 200 μL/well of pre-cooled PBS, and the fluorescence luminescence signal values were read by BD FACS CANTOII.

T3 sequence (A0A2K5UD97 entry or part of it): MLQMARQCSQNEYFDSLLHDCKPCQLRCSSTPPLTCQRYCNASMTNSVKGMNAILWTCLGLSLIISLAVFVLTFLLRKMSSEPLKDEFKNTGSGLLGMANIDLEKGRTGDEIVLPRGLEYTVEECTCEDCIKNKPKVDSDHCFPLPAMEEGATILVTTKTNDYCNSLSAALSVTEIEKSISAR

B1: anti-human BCMA HCAb monoclonal antibody PR001046 (antibody, human IgG1, V domains shown)
VH: EVQLVETGGGLIQPGGSLRLSCAASGFTVSDNYMTWVRQAPGKGLEWVSVIFSGGNTYYADSVKGRFTISRDNAKNTLYLQMNSLRAEDTALYYCARRNYDDTRGTDVFDIWGQGTMVTVSS
notes: also called PRO01046; HBM1005P63B7
B1: the EC50 came out at 1.53 nM in assay [1], 0.213 nM in assay [3] and 0.564 nM in assay [4]. For the same molecule, the concentration for half-maximal inhibition (IC50) in assay [2] came to 2.94 nM.

B2: positive control 1, PR000274 (anti-BCMA antibody CA8-J6M0 hIgG1) (antibody, V domains shown)
VH: QVQLVQSGAEVKKPGSSVKVSCKASGGTFSNYWMHWVRQAPGQGLEWMGATYRGHSDTYYNQKFKGRVTITADKSTSTAYMELSSLRSEDTAVYYCARGAIYDGYDVLDNWGQGTLVTVSS
VL: DIQMTQSPSSLSASVGDRVTITCSASQDISNYLNWYQQKPGKAPKLLIYYTSNLHSGVPSRFSGSGSGTDFTLTISSLQPEDFATYYCQQYRKLPWTFGQGTKLEIKR
notes: Full-length hIgG1 control antibody
Consider B2, for which the EC50 in assay [1] was 10.8 nM; in assay [3], 4.07 nM; in assay [4] it was 4.56 nM. The same molecule yielded an IC50 in assay [2] of 4.36 nM.

B3: BCMA x CD3 bispecific antibody PR002299 (bispecific antibody, human IgG1, lambda, L234A L235A)
heavy 1: EVQLLESGGGLVQPGGSLRLSCAASGFTFSTYAMNWVRQAPGKGLEWVSRIRSKYNNYATYYADSVKDRFTISRDDSKSTLYLQMNSLRAEDTAVYYCVRHGNFGNSYVSWFAYWGQGTLVTVSSASTKGPSVFPLAPSSKSTSGGTAALGCLVKDYFPEPVTVSWNSGALTSGVHTFPAVLQSSGLYSLSSVVTVPSSSLGTQTYICNVNHKPSNTKVDKKVEPKSCDKTHTCPPCPAPEAAGGPSVFLFPPKPKDTLMISRTPEVTCVVVDVSHEDPEVKFNWYVDGVEVHNAKTKPREEQYNSTYRVVSVLTVLHQDWLNGKEYKCKVSNKALGAPIEKTISKAKGQPREPQVYTLPPCREEMTKNQVSLWCLVKGFYPSDIAVEWESNGQPENNYKTTPPVLDSDGSFFLYSKLTVDKSRWQQGNVFSCSVMHEALHNHYTQKSLSLSPGK
light: QAVVTQEPSLTVSPGGTVTLTCRSSTGAVTTSNYANWVQQKPGQAPRGLIGGTNKRAPWTPARFSGSLLGDKAALTLLGAQPEDEAEYFCALWYSNLWVFGGGTKLTVLGQPKAAPSVTLFPPSSEELQANKATLVCLISDFYPGAVTVAWKADSSPVKAGVETTTPSKQSNNKYAASSYLSLTPEQWKSHRSYSCQVTHEGSTVEKTVAPTECS
heavy 2: EVQLLESGGGLVQPGGSLRLSCAASGFTFSSYAMIWVRQAPGKGLEWVSGISESGGSTYYADSVKGRFTISRDNSKNTLYLQMNSLRAEDTAVYFCVKDLDDILTGYYKDYWGQGTLVTVSSRTGGGGSKLEVQLLESGGGLVQPGGSLRLSCAASGFTFSSYAMIWVRQAPGKGLEWVSGISESGGSTYYADSVKGRFTISRDNSKNTLYLQMNSLRAEDTAVYFCVKDLDDILTGYYKDYWGQGTLVTVSSASEPKSSDKTHTCPPCPAPEAAGGPSVFLFPPKPKDTLMISRTPEVTCVVVDVSHEDPEVKFNWYVDGVEVHNAKTKPREEQYNSTYRVVSVLTVLHQDWLNGKEYKCKVSNKALGAPIEKTISKAKGQPREPQVCTLPPSREEMTKNQVSLSCAVKGFYPSDIAVEWESNGQPENNYKTTPPVLDSDGSFFLVSKLTVDKSRWQQGNVFSCSVMHEALHNHYTQKSLSLSPGK
On to B3, for which, in assay [5], the EC50 was 57.2 nM.
